# Laboratory results published in the supplement of paper PMC10567573.
# B1: ARL6IP1 (parent)
# chain: YLDPSVLSGVSCFVMFLCLADYLV
# Variants of: B1
# Assay: protein stability index of a GFP-peptide fusion (GPS, HEK-293T) (PSI 1-6); higher = more stable
# Conditions: c terminus: a fixed tail appended
# 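Also: lentivirally expressed fusions sorted by FACS into six bins by GFP to DsRed ratio, PSI derived from sequencing read proportions per bin multiplied by bin number.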
row,Variant,protein stability index
1,YLDPSVLSGSSCFVMFLCLADYLV,3.4
2,YLDPSVLSGHSCFVMFLCLADYLV,2.26
3,YLDPSVLSGISCFVMFLCLADYLV,3.18
4,YLDPSVLSGLSCFVMFLCLADYLV,2.97
5,YLDPSVLSGKSCFVMFLCLADYLV,2.46
6,YLDPSVLSGASCFVMFLCLADYLV,3.22
7,YLDPSVLSGQSCFVMFLCLADYLV,2.89
8,YLDPSVLSGMSCFVMFLCLADYLV,2.44
9,YLDPSVLSGWSCFVMFLCLADYLV,2.21
10,YLDPSVLSGTSCFVMFLCLADYLV,1.56
11,YLDPSVLSGYSCFVMFLCLADYLV,2.38
12,YLDPSVLSGPSCFVMFLCLADYLV,3.06
13,YLDPSVLSGDSCFVMFLCLADYLV,2.93
14,YLDPSVLSGCSCFVMFLCLADYLV,2.61
15,YLDPSVLSGFSCFVMFLCLADYLV,3.19
16,YLDPSVLSGNSCFVMFLCLADYLV,3.52
17,YLDPSVLSGESCFVMFLCLADYLV,2.67
18,YLDPSVLSGVSCFVMFLCLAAYLV,2.71
19,YLDPSVLSGVSCFVMFLCLANYLV,2.7
20,YLDPSVLSGVSCFVMFLCLAQYLV,2.58
21,YLDPSVLSGVSCFVMFLCLAIYLV,3.5
22,YLDPSVLSGVSCFVMFLCLAVYLV,3.96
23,YLDPSVLSGVSCFVMFLCLAYYLV,1.55
24,YLDPSVLSGVSCFVMFLCLAFYLV,3.29

row,Variant,protein stability index
1,YLDPSVLSGVSCFVMFLCLATYLV,3.76
2,YLDPSVLSGVSCFVMFLCLAGYLV,3.14
3,YLDPSVLSGVSCFVMFLCLAHYLV,2.6
4,YLDPSVLSGVSCFVMFLCLAKYLV,1.14
5,YLDPSVLSFVSCFVMFLCLADYLV,3.27
6,YLDPSVLSPVSCFVMFLCLADYLV,2.66
7,YLDPSVLSNVSCFVMFLCLADYLV,4.26
8,YLDPSVLSQVSCFVMFLCLADYLV,3.72
9,YLDPSVLSLVSCFVMFLCLADYLV,3.4
10,YLDPSVLSTVSCFVMFLCLADYLV,3.03
11,YLDPSVLSYVSCFVMFLCLADYLV,2.81
12,YLDPSVLSRVSCFVMFLCLADYLV,2.5
13,YLDPSVLSHVSCFVMFLCLADYLV,3.27
14,YLDPSVLSKVSCFVMFLCLADYLV,2.49
15,YLDPSVLSSVSCFVMFLCLADYLV,2.12
16,YLDPSVLSVVSCFVMFLCLADYLV,3.3
17,YLDPSVLSGVSCFVMFLCLADNLV,3.07
18,YLDPSVLSGVSCFVMFLCLADWLV,3.48
19,YLDPSVLSGVSCFVMFLCLADQLV,3.52
20,YLDPSVLSGVSCFVMFLCLADKLV,3.93
21,YLDPSVLSGVSCFVMFLCLADCLV,3.08
22,YLDPSVLSGVSCFVMFLCLADSLV,3.94
23,YLDPSVLSGVSCFVMFLCLADILV,2.44
24,YLDPSVLSGVSCFVMFLCLADPLV,2.87

row,Variant,protein stability index
1,YLDPSVLSGVSCFVMFLCLADLLV,1.58
2,YLDPSVLSGVSCFVMFLCLADVLV,2.14
3,YLDPSVLSGVSCFVMFLCLADHLV,2.31
4,YLDPSVLSGVSCFVMFLCLADYLL,3.97
5,YLDPSVLSGVSCFVMFLCLADYLI,3.52
6,YLDPSVLSGVSCFVMFLCLADYLF,2.97
7,YLDPSVLSGVSCFVMFLCLADYLA,2.78
8,YLDPSVLSGVSCFVMFLCLADYLM,3.77
9,YLDPSVLSGVSCFVMFLCLADYLC,3.6
10,YLDPSVLSGVSCFVMFHCLADYLV,2.4
11,YLDPSVLSGVSCFVMFTCLADYLV,3.26
12,YLDPSVLSGVSCFVMFRCLADYLV,2.54
13,YLDPSVLSGVSCFVMFSCLADYLV,1.35
14,YLDPSVLSGVSCFVMFKCLADYLV,3.75
15,YLDPSVLSGVSCFVMFWCLADYLV,3.18
16,YLDPSVLSGVSCFVMFACLADYLV,2.34
17,YLDPSVLSGVSCFVMFMCLADYLV,4.66
18,YLDPSVLSGVSCFVMFFCLADYLV,2.82
19,YLDPSVLSGVSCFVMFVCLADYLV,2.2
20,YLDPSVLSGVSCFVMFGCLADYLV,4.55
21,YLDPSVLSGVSCFVMFDCLADYLV,2.49
22,YLDPSVLSGVSCFVMFLCLHDYLV,2.64
23,YLDPSVLSGVSCFVMFLCLNDYLV,3.34
24,YLDPSVLSGVSCFVMFLCLIDYLV,1.85

row,Variant,protein stability index
1,YLDPSVLSGVSCFVMFLCLTDYLV,4.15
2,YLDPSVLSGVSCFVMFLCLYDYLV,3.24
3,YLDPSVLSGVSCFVMFLCLVDYLV,1.63
4,YLDPSVLSGVSCFVMFLCLFDYLV,2.87
5,YLDPSVLSGVSCFVMFLCLKDYLV,3.71
6,YLDPSVLSGVSCFVMFLCLCDYLV,3.26
7,YLDPSVLSGVSCFVMFLCLWDYLV,2.47
8,YLDPSVLSGVSCFVMFLALADYLV,1.91
9,YLDPSVLSGVSCFVMFLFLADYLV,3.35
10,YLDPSVLSGVSCFVMFLYLADYLV,1.96
11,YLDPSVLSGVSCFVMFLQLADYLV,2.01
12,YLDPSVLSGVSCFVMFLVLADYLV,2.09
13,YLDPSVLSGVSCFVMFLRLADYLV,2.65
14,YLDPSVLSGVSCFVMFLGLADYLV,2.47
15,YLDPSVLSGVSCFVMFLTLADYLV,3.26
16,YLDPSVLSGVSCFVMFLNLADYLV,2.68
17,YLDPSVLSGVSCFVMFLKLADYLV,2.37
18,YLDPSVLSGVSCFVMFLLLADYLV,3.54
19,YLDPSVLSGVSCFVMFLHLADYLV,2.85
20,YLDPSVLSGVHCFVMFLCLADYLV,2.62
21,YLDPSVLSGVFCFVMFLCLADYLV,2.24
22,YLDPSVLSGVPCFVMFLCLADYLV,3.52
23,YLDPSVLSGVGCFVMFLCLADYLV,3.42
24,YLDPSVLSGVVCFVMFLCLADYLV,4.17

row,Variant,protein stability index
1,YLDPSVLSGVYCFVMFLCLADYLV,3.78
2,YLDPSVLSGVCCFVMFLCLADYLV,3.23
3,YLDPSVLSGVECFVMFLCLADYLV,4.25
4,YLDPSVLSGVSCFVMFLCYADYLV,1.85
5,YLDPSVLSGVSCFVMFLCWADYLV,1.73
6,YLDPSVLSGVSCFVMFLCHADYLV,3.03
7,YLDPSVLSGVSCFVMFLCPADYLV,2.1
8,YLDPSVLSGVSCFVMFLCNADYLV,2.57
9,YLDPSVLSGVSCFVMFLCDADYLV,2.98
10,YLDPSVLSGVSCFVMFLCAADYLV,2.42
11,YLDPSVLSGVSCFVMFLCEADYLV,3.85
12,YLDPSVLSGVSCFVMFLCQADYLV,2.06
13,YLDPSVLSGVSCFVMFLCCADYLV,4.14
14,YLDPSVLSGVSCFVMFLCMADYLV,2.06
15,YLDPSVLSGVSCFVMFLCSADYLV,3.89
16,YLDPSVLSGVSCFVMFLCRADYLV,2.38
17,YLDPSVLSGVSCFVMFLCFADYLV,2.56
18,YLDPSVLSGVSCFVMFLCTADYLV,2.74
19,YLDPSVLSGVSCFVMFLCKADYLV,2.81
20,YLDPSVLSGVSYFVMFLCLADYLV,2.47
21,YLDPSVLSGVSLFVMFLCLADYLV,2.45
22,YLDPSVLSGVSAFVMFLCLADYLV,3.07
23,YLDPSVLSGVSQFVMFLCLADYLV,4.12
24,YLDPSVLSGVSMFVMFLCLADYLV,2.56

row,Variant,protein stability index
1,YLDPSVLSGVSVFVMFLCLADYLV,3.66
2,YLDPSVLSGVSTFVMFLCLADYLV,2.24
3,YLDPSVLSGVSSFVMFLCLADYLV,1.48
4,YLDPSVLSGVSGFVMFLCLADYLV,3.53
5,YLDPSVLSGVSDFVMFLCLADYLV,3.35
6,YLDPSVLSGVSFFVMFLCLADYLV,2.47
7,YLDPSVLSGVSWFVMFLCLADYLV,2.26
8,YLDPSVLSGVSPFVMFLCLADYLV,3.54
9,YLDPSVLSGVSCFSMFLCLADYLV,2.83
10,YLDPSVLSGVSCFPMFLCLADYLV,3.67
11,YLDPSVLSGVSCFRMFLCLADYLV,1.65
12,YLDPSVLSGVSCFEMFLCLADYLV,2.54
13,YLDPSVLSGVSCFAMFLCLADYLV,2.62
14,YLDPSVLSGVSCFWMFLCLADYLV,2.15
15,YLDPSVLSGVSCFKMFLCLADYLV,1.98
16,YLDPSVLSGVSCFLMFLCLADYLV,2.1
17,YLDPSVLSGVSCFHMFLCLADYLV,2.06
18,YLDPSVLSGVSCFFMFLCLADYLV,2.09
19,YLDPSVLSGVSCFMMFLCLADYLV,3.79
20,YLDPSVLSGVSCFTMFLCLADYLV,2.04
21,YLDPSVLSGVSCFGMFLCLADYLV,2.85
22,YLDPSVLSGVSCFVMFLCLADYHV,2.74
23,YLDPSVLSGVSCFVMFLCLADYEV,4.8
24,YLDPSVLSGVSCFVMFLCLADYGV,2.59

row,Variant,protein stability index
1,YLDPSVLSGVSCFVMFLCLADYPV,2.39
2,YLDPSVLSGVSCFVMFLCLADYVV,3.07
3,YLDPSVLSGVSCFVMFLCLADYYV,2.27
4,YLDPSVLSGVSCFVMFLCLADYCV,3.76
5,YLDPSVLSGVSCFVMFLCLADYKV,3.29
6,YLDPSVLSGVSCFVMFLCLADYQV,2.69
7,YLDPSVLSGVSCFVMFLCLADYTV,3.08
8,YLDPSVLSGVSCFVMFLCLADYNV,3.21
9,YLDPSVLSGVSCFVMFLCLADYWV,2.07
10,YLDPSVLSGVSCFVMFLCLADYIV,4.16
11,YLDPSVLSGVSCFVMFLCLADYMV,2.83
12,YLDPSVLSGVSCTVMFLCLADYLV,4.33
13,YLDPSVLSGVSCKVMFLCLADYLV,2.38
14,YLDPSVLSGVSCWVMFLCLADYLV,3.83
15,YLDPSVLSGVSCIVMFLCLADYLV,2.81
16,YLDPSVLSGVSCCVMFLCLADYLV,2.92
17,YLDPSVLSGVSCNVMFLCLADYLV,2.42
18,YLDPSVLSGVSCYVMFLCLADYLV,3.73
19,YLDPSVLSGVSCAVMFLCLADYLV,3.86
20,YLDPSVLSGVSCQVMFLCLADYLV,3.58
21,YLDPSVLSGVSCDVMFLCLADYLV,2.64
22,YLDPSVLSGVSCFVMGLCLADYLV,2.14
23,YLDPSVLSGVSCFVMVLCLADYLV,3.72
24,YLDPSVLSGVSCFVMPLCLADYLV,2.64

row,Variant,protein stability index
1,YLDPSVLSGVSCFVMRLCLADYLV,3.63
2,YLDPSVLSGVSCFVMLLCLADYLV,2.62
3,YLDPSVLSGVSCFVMALCLADYLV,1.99
4,YLDPSVLSGVSCFVMNLCLADYLV,2.88
5,YLDPSVLSGVSCFVMWLCLADYLV,2.85
6,YLDPSVLSGVSCFVMKLCLADYLV,1.74
7,YLDPSVLSGVSCFVRFLCLADYLV,2.59
8,YLDPSVLSGVSCFVGFLCLADYLV,4.04
9,YLDPSVLSGVSCFVTFLCLADYLV,3.04
10,YLDPSVLSGVSCFVWFLCLADYLV,2.93
11,YLDPSVLSGVSCFVNFLCLADYLV,2.88
12,YLDPSVLSGVSCFVIFLCLADYLV,4.76
13,YLDPSVLSGVSCFVSFLCLADYLV,2.79
14,YLDPSVLSGVSCFVCFLCLADYLV,3.3
15,YLDPSVLSGVSCFVKFLCLADYLV,3.66
16,YLDPSVLSGVSCFVDFLCLADYLV,2.69
17,YLDPSVLSGVSCFVVFLCLADYLV,2.38
18,YLDPSVLSGVSCFVHFLCLADYLV,3.49
19,YLDPSVLSGVSCFVLFLCLADYLV,2.76
20,YLDPSVLSGVSCFVFFLCLADYLV,2.3
